In publication PMC6546751:
pKd: −log10 of the molar value.

Target: FITC-casein (fluorescein-labeled casein, Sigma #C0528) (bovine)
Assay: not stated; apparent Kd of ClpB for casein in the presence of ATPγS (Supplementary Fig. 1d); method not given

pKd | Substance
6.96 | Escherichia coli ClpB K476C hyperactive middle-domain variant (from UniProt P63284 1-857) (enzyme)
6.89 | Escherichia coli ClpB, wild type (from UniProt P63284 1-857) (enzyme)
